# In patent US20110091994A1, “Methods for Screening Compounds for Treating and/or Preventing an Hepatitis C Virus Infection” (priority 2008, published 2011):
# Like-named read-outs stand apart in the source and are kept apart here.
# Key:
# [1] = system: HCV ORFs (Gal4-DB fusions); assay type: binding, HCV genotype 1b, isolate con1; settings: human protein listed by gene symbol; the value names the HCV protein it interacts with
# [2] = target: T1, HCV ORFs (Gal4-DB fusions) (Hepatitis C virus genotype 1b, UniProt Q9WMX2); assay type: binding, HCV genotype 1b, isolate con1; settings: human protein as prey
# T1 construct: expressed in transfected cells; host or cells: Saccharomyces cerevisiae MAV203 (IMAP1) / AH109 (IMAP2)
# 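Also: yeast two-hybrid screens using HCV genotype 1b proteins fused to Gal4-DB as baits against prey cDNA libraries from human spleen and foetal brain, IMAP1 via transformation and IMAP2 via mating.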
Molecule,Interaction with viral protein [1],IMAP Y2H IMAP2 (number of IST) ([2]; HCV protein CORE as bait),also measured
"DDX3Y (protein, UniProt O15523 2-660, looked up) ATP-dependent RNA helicase …: SHVVVKNDPELDQQLANLDLNSEKQSGGASTASKGRYIPPHLRNREASKGFHDKDSSGWSCSKDKDAYSSFGSRDSRGKPGYFSERGSGSRGRFDDRGRSDYDGIGNRERPGFGRFERSGHSRWCDKSVEDDWSKPLPPSERLEQELFSGGNTGINFEKYDDIPVEATGSNCPPHIENFSDIDMGEIIMGNIELTRYTRPTPVQKHAIPIIKGKRDLMACAQTGSGKTAAFLLPILSQIYTDGPGEALKAVKENGRYGRRKQYPISLVLAPTRELAVQIYEEARKFSYRSRVRPCVVYGGADIGQQIRDLERGCHLLVATPGRLVDMMERGKIGLDFCKYLVLDEADRMLDMGFEPQIRRIVEQDTMPPKGVRHTMMFSATFPKEIQMLARDFLDEYIFLAVGRVGSTSENITQKVVWVEDLDKRSFLLDILGATGSDSLTLVFVETKKGADSLEDFLYHEGYACTSIHGDRSQRDREEALHQFRSGKSPILVATAVAARGLDISNVRHVINFDLPSDIEEYVHRIGRTGRVGNLGLATSFFNEKNMNITKDLLDLLVEAKQEVPSWLENMAYEHHYKGGSRGRSKSNRFSGGFGARDYRQSSGSSSSGFGASRGSSSRSGGGGYGNSRGFGGGGYGGFYNSDGYGGNYNSQGVDWWGN",CORE,3,–
"NAPL1L2 (protein, UniProt Q9ULW6 1-460, looked up) Nucleosome assembly protein …: MAESENRKELSESSQEEAGNQIMVEGLGEHLERGEDAAAGLGDDGKCGEEAAAGLGEEGENGEDTAAGSGEDGKKGGDTDEDSEADRPKGLIGYVLDTDFVESLPVKVKYRVLALKKLQTRAANLESKFLREFHDIERKFAEMYQPLLEKRRQIINAIYEPTEEECEYKSDSEDCDDEEMCHEEMYGNEEGMVHEYVDEDDGYEDYYYDYAVEEEEEEEEEDDIEATGEENKEEEDPKGIPDFWLTVLKNVDTLTPLIKKYDEPILKLLTDIKVKLSDPGEPLSFTLEFHFKPNEYFKNELLTKTYVLKSKLAYYDPHPYRGTAIEYSTGCEIDWNEGKNVTLKTIKKKQKHRIWGTIRTVTEDFPKDSFFNFFSPHGITSNGRDGNDDFLLGHNLRTYIIPRSVLFFSGDALESQQEGVVREVNDAIYDKIIYDNWMAAIEEVKACCKNLEALVEDIDR",–,–,IMAP Y2H IMAP2 (number of IST) ([2]; HCV protein NS3 as bait): 1
"EGFL7 (protein, UniProt Q9UHF1 24-273, looked up) Epidermal growth factor-like …: YRPGRRVCAVRAHGDPVSESFVQRVYQPFLTTCDGHRACSTYRTIYRTAYRRSPGLAPARPRYACCPGWKRTSGLPGACGAAICQPPCRNGGSCVQPGRCRCPAGWRGDTCQSDVDECSARRGGCPQRCVNTAGSYWCQCWEGHSLSADGTLCVPKGGPPRVAPNPTGVDSAMKEEVQRLQSRVDLLEEKLQLVLAPLHSLASQALEHGLPDPGSLLVHSFQQLGRIDSLSEQISFLEEQLGSCSCKKDS",CORE,1,–
"BIN1 (protein, UniProt O00499 2-593, looked up) Myc box-dependent-interacting …: AEMGSKGVTAGKIASNVQKKLTRAQEKVLQKLGKADETKDEQFEQCVQNFNKQLTEGTRLQKDLRTYLASVKAMHEASKKLNECLQEVYEPDWPGRDEANKIAENNDLLWMDYHQKLVDQALLTMDTYLGQFPDIKSRIAKRGRKLVDYDSARHHYESLQTAKKKDEAKIAKPVSLLEKAAPQWCQGKLQAHLVAQTNLLRNQAEEELIKAQKVFEEMNVDLQEELPSLWNSRVGFYVNTFQSIAGLEENFHKEMSKLNQNLNDVLVGLEKQHGSNTFTVKAQPSDNAPAKGNKSPSPPDGSPAATPEIRVNHEPEPAGGATPGATLPKSPSQLRKGPPVPPPPKHTPSKEVKQEQILSLFEDTFVPEISVTTPSQFEAPGPFSEQASLLDLDFDPLPPVTSPVKAPTPSGQSIPWDLWEPTESPAGSLPSGEPSAAEGTFAVSWPSQTAEPGPAQPAEASEVAGGTQPAAGAQEPGETAASEAASSSLPAVVVETFPATVNGTVEGGSGAGRLDLPPGFMFKVQAQHDYTATDTDELQLKAGDVVLVIPFQNPEEQDEGWLMGVKESDWNQHKELEKCRGVFPENFTERVP",–,–,IMAP Y2H IMAP1 (number of IST) ([2]; HCV protein NS5A as bait): 16; IMAP Y2H IMAP2 (number of IST) ([2]; HCV protein NS5A as bait): 14
"DDX3X (protein, UniProt O00571 2-662, looked up) ATP-dependent RNA helicase …: SHVAVENALGLDQQFAGLDLNSSDNQSGGSTASKGRYIPPHLRNREATKGFYDKDSSGWSSSKDKDAYSSFGSRSDSRGKSSFFSDRGSGSRGRFDDRGRSDYDGIGSRGDRSGFGKFERGGNSRWCDKSDEDDWSKPLPPSERLEQELFSGGNTGINFEKYDDIPVEATGNNCPPHIESFSDVEMGEIIMGNIELTRYTRPTPVQKHAIPIIKEKRDLMACAQTGSGKTAAFLLPILSQIYSDGPGEALRAMKENGRYGRRKQYPISLVLAPTRELAVQIYEEARKFSYRSRVRPCVVYGGADIGQQIRDLERGCHLLVATPGRLVDMMERGKIGLDFCKYLVLDEADRMLDMGFEPQIRRIVEQDTMPPKGVRHTMMFSATFPKEIQMLARDFLDEYIFLAVGRVGSTSENITQKVVWVEESDKRSFLLDLLNATGKDSLTLVFVETKKGADSLEDFLYHEGYACTSIHGDRSQRDREEALHQFRSGKSPILVATAVAARGLDISNVKHVINFDLPSDIEEYVHRIGRTGRVGNLGLATSFFNERNINITKDLLDLLVEAKQEVPSWLENMAYEHHYKGSSRGRSKSSRFSGGFGARDYRQSSGASSSSFSSSRASSSRSGGGGHGSSRGFGGGGYGGFYNSDGYGGNYNSQGVDWWGN",–,1,–
"DLAT (protein, UniProt P10515 87-647, looked up) Dihydrolipoyllysine-residue …: SLPPHQKVPLPSLSPTMQAGTIARWEKKEGDKINEGDLIAEVETDKATVGFESLEECYMAKILVAEGTRDVPIGAIICITVGKPEDIEAFKNYTLDSSAAPTPQAAPAPTPAATASPPTPSAQAPGSSYPPHMQVLLPALSPTMTMGTVQRWEKKVGEKLSEGDLLAEIETDKATIGFEVQEEGYLAKILVPEGTRDVPLGTPLCIIVEKEADISAFADYRPTEVTDLKPQVPPPTPPPVAAVPPTPQPLAPTPSAPCPATPAGPKGRVFVSPLAKKLAVEKGIDLTQVKGTGPDGRITKKDIDSFVPSKVAPAPAAVVPPTGPGMAPVPTGVFTDIPISNIRRVIAQRLMQSKQTIPHYYLSIDVNMGEVLLVRKELNKILEGRSKISVNDFIIKASALACLKVPEANSSWMDTVIRQNHVVDVSVAVSTPAGLITPIVFNAHIKGVETIANDVVSLATKAREGKLQPHEFQGGTFTISNLGMFGIKNFSAIINPPQACILAIGASEDKLVPADNEKGFDVASMMSVTLSCDHRVVDGAVGAQWLAEFRKYLEKPITMLL",NS3,–,IMAP Y2H IMAP2 (number of IST) ([2]; HCV protein NS3 as bait): 8
"UBASH3A (protein, UniProt P57075 1-661, looked up) Ubiquitin-associated and SH3 …: MAAGETQLYAKVSNKLKSRSSPSLLEPLLAMGFPVHTALKALAATGRKTAEEALAWLHDHCNDPSLDDPIPQEYALFLCPTGPLLEKLQEFWRESKRQCAKNRAHEVFPHVTLCDFFTCEDQKVECLYEALKRAGDRLLGSFPTAVPLALHSSISYLGFFVSGSPADVIREFAMTFATEASLLAGTSVSRFWIFSQVPGHGPNLRLSNLTRASFVSHYILQKYCSVKPCTKQLHLTLAHKFYPHHQRTLEQLARAIPLGHSCQWTAALYSRDMRFVHYQTLRALFQYKPQNVDELTLSPGDYIFVDPTQQDEASEGWVIGISQRTGCRGFLPENYTDRASESDTWVKHRMYTFSLATDLNSRKDGEASSRCSGEFLPQTARSLSSLQALQATVARKSVLVVRHGERVDQIFGKAWLQQCSTPDGKYYRPDLNFPCSLPRRSRGIKDFENDPPLSSCGIFQSRIAGDALLDSGIRISSVFASPALRCVQTAKLILEELKLEKKIKIRVEPGIFEWTKWEAGKTTPTLMSLEELKEANFNIDTDYRPAFPLSALMPAESYQEYMDRCTASMVQIVNTCPQDTGVILIVSHGSTLDSCTRPLLGLPPRECGDFAQLVRKIPSLGMCFCEENKEEGKWELVNPPVKTLTHGANAAFNWRNWISGN",–,–,IMAP Y2H IMAP2 (number of IST) ([2]; HCV protein NS5A as bait): 1
